Data reported in US20050182242A1, “Global analysis of protein activities using proteome chips” (priority 2001, published 2005).

Legend:
[1] = system: PI(3)P liposomes; assay: Yeast proteome chip probed with PI(3)P liposomes; conditions: liposome binding signal on yeast proteome chip, Cy3-streptavidin detection
[2] = system: PI(4,5)P2 liposomes; assay: Yeast proteome chip probed with PI(4,5)P2 liposomes; conditions: liposome binding signal on yeast proteome chip, Cy3-streptavidin detection
[3] = system: PI(3,4)P2 liposomes; assay: Yeast proteome chip probed with PI(3,4)P2 liposomes; conditions: liposome binding signal on yeast proteome chip, Cy3-streptavidin detection
[4] = system: phosphatidylcholine (PC) liposomes; assay: Yeast proteome chip probed with PC liposomes; conditions: liposome binding signal on yeast proteome chip, Cy3-streptavidin detection
Summary of the method: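 Yeast proteome chips incubated 1 h at RT with sonicated liposomes of PC containing 1% (w/w) biotin-DHPE, plus 5% (w/w) of the indicated phosphoinositide where applicable. After PBS washes, bound liposomes detected with Cy3- or Cy5-streptavidin (>30 min, RT, dark) and fluorescence scanned.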

[5] = system: PI(4)P liposomes; assay: Yeast proteome chip probed with PI(4)P liposomes; conditions: liposome binding signal on yeast proteome chip, Cy3-streptavidin detection
[6] = system: PI(3,4,5)P3 liposomes; assay: Yeast proteome chip probed with PI(3,4,5)P3 liposomes; conditions: liposome binding signal on yeast proteome chip, Cy3-streptavidin detection
[7] = system: total yeast genomic DNA; assay: Yeast proteome chip probed with labeled genomic DNA; format: binding; conditions: Cy3-labeled genomic DNA, visual inspection
Description: Protein-DNA and protein-RNA interactions are important for many fundamental biological functions such as transcription regulation, chromosome segregation and maintenance, and RNA transport and processing (Williamson, 2000, Nat. Struct. Biol. 7(10):834-7). To explore the possibility of using a proteome chip to identify proteins that bind to DNA or RNA molecules, total yeast genomic DNA was labeled using Cy3-CTP and Klenow fragment, and polyA^+ was labeled using a biotinylated psoralen-derivative (31). Each probe was incubated with a different proteome chip (FIG. 3A).
The protein-nucleic acid interaction was assayed as follows. The nucleic acid robes were labeled as described by Winzeler et al. (1999, Science 285:901). Blocked proteome chips were washed three to five times in PBS buffer, and the extra liquid on the glass surface was removed by tapping the slides vertically on a KIMWIPE™. 200 μl of labeled nuclei acid probe ([…] poly(dC/dG); 100-300 mM NaCl; 50-300 mM HEPES, pH 7.0-8.5; 10 mM MgCl2) was added to the proteome chip and immediately covered by a hydrophobic plastic cover slip (GRACE BIO-LABS™, USA). After trapped air bubbles were removed, the chip was incubated in a humidity chamber in the dark at room temperature (“RT”) for one hour. To remove the cover slip, the chip was immersed into large volume of PBS buffer(>50 ml), so that the slip would float away. The chip was then moved to a second PBS bath (>50 ml) and washed 3×5 min with shaking in the dark at RT. To completely remove the liquid on the chip, the chip was spun to dryness at 1500-2000 rpm for 5-10 min at RT.

B1: TFB3: yeast GST-HisX6 fusion protein on proteome chip (protein, UniProt Q03290 1-321, looked up)
RNA polymerase II …: MLMDEYEENKDMCPICKTDRYLSPDVKFLVNPECYHRICESCVDRIFSLGPAQCPYKGCDKILRKNKFKTQIFDDVEVEKEVDIRKRVFNVFNKTIDDFNGDLVEYNKYLEEVEDIIYKLDHGIDVAKTEEKLRTYEELNKQLIMNNLERSRTEIESFEQRQKFEKEMKLKKRLLERQIEEEERMNKEWTKKEIVNRLSTTTQDINETIEGVKNTVKLKKSSARRKLEELNRVLKNNPYFNSNVNVQNSRLKDAVPFTPFNGDREAHPRFTLKGSVYNDPFIKDLEHRKEFIASGFNTNYAYERVLTEAFMGLGCVISEEL
modifications: GST-His6 tag
notes: yeast GST-HisX6 fusion protein on proteome chip
PI(3)P [1]: 71.00
PI(4, 5)P2 [2]: 37.23
PI(3, 4)P2 [3]: 47.72
PC [4]: 37.86
PI(4)P [5]: 43.98
PI(3, 4, 5)P3 [6]: 27.45

B2: Rad51p: yeast DNA-repair protein (protein, UniProt P25454 1-400, looked up)
DNA repair protein RAD51: MSQVQEQHISESQLQYGNGSLMSTVPADLSQSVVDGNGNGSSEDIEATNGSGDGGGLQEQAEAQGEMEDEAYDEAALGSFVPIEKLQVNGITMADVKKLRESGLHTAEAVAYAPRKDLLEIKGISEAKADKLLNEAARLVPMGFVTAADFHMRRSELICLTTGSKNLDTLLGGGVETGSITELFGEFRTGKSQLCHTLAVTCQIPLDIGGGEGKCLYIDTEGTFRPVRLVSIAQRFGLDPDDALNNVAYARAYNADHQLRLLDAAAQMMSESRFSLIVVDSVMALYRTDFSGRGELSARQMHLAKFMRALQRLADQFGVAVVVTNQVVAQVDGGMAFNPDPKKPIGGNIMAHSSTTRLGFKKGKGCQRLCKVVDSPCLPEAECVFAIYEDGVGDPREEDE
binding of genomic DNA probe [7]: identified

B3: Cdc1p: yeast DNA-repair protein (protein, UniProt P40986 1-491, looked up)
Cell division control protein …: MVYRNRSKSVLSTHSKKSDDKAHYKSRSKKKSKSRSKKRLRIYWRYISIVWILWLGLISYYESVVVKRAMKKCQWSTWEDWPEGAESHRVGLFADPQIMDEYSYPGRPQIVNYFTRVIVDHYHRRNWKYVQYYLDPDSNFFLGDLFDGGRNWDDKQWIKEYTRFNQIFPKKPLRRTVMSLPGNHDIGFGDTVVESSLQRFSSYFGETSSSLDAGNHTFVLLDTISLSDKTNPNVSRVPRQFLDNFAMGSHPLPRILLTHVPLWRDPEQQTCGQLRESKEPFPIQKGHQYQTVIENDISQEILTKIQPEILFSGDDHDHCQISHSYPFQGKTKNAQEITVKSCAMNMGISRPAIQLLSLYNPSDLTMVNAGGEYASKTYQTELCYMPDPYKAIRMYLWGLLFSAAFIAYMHFFPKSFNNRVATIMNRVFTRPDGNTSDLPLPTSISKSKSKKSLTHSKYAVNDTRSIKQFLVNAIVLFVSVMPIFIYFYTVV
binding of genomic DNA probe [7]: identified

B4: Trm2p: yeast protein involved in DNA repair and RNA processing/modification (protein, UniProt P33753 1-639, looked up)
tRNA …: MYEQFEFSFFFFENSDNKVKYKAHLISSIKRWSIITCMRCFWTVQKSIFKARFFACRNFVKKHNYKLISTMTGSTEMVPPTMKHTVDNKRLSSPLTDSGNRRTKKPKLRKYKAKKVETTSPMGVLEFEVNDLLKSQNLSREQVLNDVTSILNDKSSTDGPIVLQYHREVKNVKVLEITSNGNGLALIDNPVETEKKQVVIIPFGLPGDVVNIKVFKTHPYYVESDLLDVVEKSPMRRDDLIRDKYFGKSSGSQLEFLTYDDQLELKRKTIMNAYKFFAPRLVAEKLLPPFDTTVASPLQFGYRTKITPHFDMPKRKQKELSVRPPLGFGQKGRPQWRKDTLDIGGHGSILDIDECVLATEVLNKGLTNERRKFEQEFKNYKKGATILLRENTTILDPSKPTLEQLTEEASRDENGDISYVEVEDKKNNVRLAKTCVTNPRQIVTEYVDGYTFNFSAGEFFQNNNSILPIVTKYVRDNLQAPAKGDDNKTKFLVDAYCGSGLFSICSSKGVDKVIGVEISADSVSFAEKNAKANGVENCRFIVGKAEKLFESIDTPSENTSVILDPPRKGCDELFLKQLAAYNPAKIIYISCNVHSQARDVEYFLKETENGSAHQIESIRGFDFFPQTHHVESVCIMKRI
binding of genomic DNA probe [7]: identified

B5: xrs2p: yeast DNA-repair protein (protein, UniProt P33301 1-854, looked up)
DNA repair protein XRS2: MWVVRYQNTLEDGSISFISCCLQAFKTYSIGRSSKNPLIIKNDKSISRQHITFKWEINNSSDLKHSSLCLVNKGKLTSLNKKFMKVGETFTINASDVLKSTIIELGTTPIRIEFEWINEVWNIPPHLTQFRTMLSEYGISTEISINDIPANLMISDYPKSEDNSIRELYALVSTIPMKKSRFLMELCNTLLPTSKTNLKFDEMWNDMISNPEYNVFDFDPNILLSKFMRLNNIRVLTTIKSEPRLSSLLRTFNINLFAFDNIDSLYKYVDSLEASTEYLILTTTDKKENGKILCTIKTMLTSIIDGTLSAVINMKGASSRTLDNGKFDQISEGMSTILKTSRAPEVEASPVVSKKRKLNRRRVLPLDSLDFFAGGLSTKTLSENRSLTDAKRLNCGAESKTVISSPNIAEADEKHAPFLQNALKPTEDIGKKSGHSSPGAIIVSSPNLGTVNTSEDSLDKSLQSHKLPQPSLPEVAGIGSQTISSNSADYETAAVNSMDDAEVTKNFRVNHHQNIEQPSKNIRKLSNYSREISSPLQENCKSPVKELSIKEKSGTPHAFVEAIQETKNREVKRVKSTIVELKDEELSEEAINQLKNLAIVEPSNNLLRKSFDSEGNKTSRTTEKWENSLMEPEWHKRKNFKTFVKVRPKSKAHKEEGKNNTQSSDFIRNAAFLITRNYVPLKKYSKKDTTTKWGTEENEDMFALTEMERFGSNTFMSDNINSNTIQKRSQALNRFTNEDSSNEGEEDSFSFSRCSGTAASVQPLKNKIFITDEDDLGDIDDKSDRLNHRENNRNLFVVKEMNLRPNLSEECSKQSRHSRSATSRSRGSFGASNNGDGDDDDDDGPKFTFKRRKG
binding of genomic DNA probe [7]: identified

B6: Met30p: yeast protein with five WD-repeats that binds certain promoter regions (protein, UniProt P39014 1-640, looked up)
F-box protein MET30: MRRERQRMMSFEDKDKDDLDNSNSNNSSEMTDTAMMPPLKRLLITGSSDDLAQGSSGKKKMTMATRSPSSSPDLATNDSGTRVQPLPEYNFTKFCYRHNPDIQFSPTHTACYKQDLKRTQEINANIAKLPLQEQSDIHHIISKYSNSNDKIRKLILDGILSTSCFPQLSYISSLVTHMIKIDFISILPQELSLKILSYLDCQSLCNATRVCRKWQKLADDDRVWYHMCEQHIDRKCPNCGWGLPLLHMKRARIQQNSTGSSSNADIQTQTTRPWKVIYRERFKVESNWRKGHCRIQEFKGHMDGVLTLQFNYRLLFTGSYDSTIGIWDLFTGKLIRRLSGHSDGVKTLYFDDRKLITGSLDKTIRVWNYITGECISTYRGHSDSVLSVDSYQKVIVSGSADKTVKVWHVESRTCYTLRGHTEWVNCVKLHPKSFSCFSCSDDTTIRMWDIRTNSCLKVFRGHVGQVQKIIPLTIKDVENLATDNTSDGSSPQDDPTMTDGADESDTPSNEQETVLDENIPYPTHLLSCGLDNTIKLWDVKTGKCIRTQFGHVEGVWDIAADNFRIISGSHDGSIKVWDLQSGKCMHTFNGRRLQRETQHTQTQSLGDKVAPIACVCIGDSECFSGDEFGCVKMYKFDLND
binding of genomic DNA probe [7]: identified

B7: Spt2p: transcription factor, negative regulator of HO gene transcription (protein, UniProt P06843 2-333, looked up)
Protein SPT2: SFLSKLSQIRKSTTASKAQVQDPLPKKNDEEYSLLPKNYIRDEDPAVKRLKELRRQELLKNGALAKKSGVKRKRGTSSGSEKKKIERNDDDEGGLGIRFKRSIGASHAPLKPVVRKKPEPIKKMSFEELMKQAENNEKQPPKVKSSEPVTKERPHFNKPGFKSSKRPQKKASPGATLRGVSSGGNSIKSSDSPKPVKLNLPTNGFAQPNRRLKEKLESRKQKSRYQDDYDEEDNDMDDFIEDDEDEGYHSKSKHSNGPGYDRDEIWAMFNRGKKRSEYDYDELEDDDMEANEMEILEEEEMARKMARLEDKREEAWLKKHEEEKRRRKKGIR
binding of genomic DNA probe [7]: identified

B8: PCL6: yeast GST-HisX6 fusion protein on proteome chip (protein, UniProt P40038 1-420, looked up)
PHO85 cyclin-6: MSIKGDSPSSTNASSSPKSTYSIQSDDKANLGSGNVDIRTDNSQQDSNNRRDIVVVTRVASEETLESQSSTSSMGIRPESSFNYEDASNQARVEMNNRVHGSNMNTINKYYPVRFPKNNERQLSDTNNLNEKVQGTHTVQSSTQEDKILDGDTSNSQVTPSLNIAEFPTDKLLKMLTALLTKIIKSNDRTAATNPSLTQEIENGRCLALSDNEKKYLSPVLGFRGKHVPQIGLDQYFQRIQKYCPTTNDVFLSLLVYFDRISKRCNSVTTTPKTNTAKHESPSNESSLDKANRGADKMSACNSNENNENDDSDDENTGVQRDSRAHPQMFVMDSHNIHRLIIAGITVSTKFLSDFFYSNSRYSRVGGISLQELNHLELQFLVLCDFELLISVNELQRYADLLYRFWNNAKAQSQALVTGM
modifications: GST-His6 fusion tag
notes: as for B1
PI(3)P [1]: 9.00
PI(4, 5)P2 [2]: 3.70
PI(3, 4)P2 [3]: 26.84
PC [4]: 31.70
PI(4)P [5]: 8.06
PI(3, 4, 5)P3 [6]: 26.89
